# In patent US20100221257A1 (AstraZeneca / MedImmune, published 2010):
# Substitutions are numbered along the chain they refer to.
# T1: human IL-1R1, endogenous on human cells (HeLa cells; whole blood) (human, UniProt P14778 18-569)
# T1 sequence (looked up): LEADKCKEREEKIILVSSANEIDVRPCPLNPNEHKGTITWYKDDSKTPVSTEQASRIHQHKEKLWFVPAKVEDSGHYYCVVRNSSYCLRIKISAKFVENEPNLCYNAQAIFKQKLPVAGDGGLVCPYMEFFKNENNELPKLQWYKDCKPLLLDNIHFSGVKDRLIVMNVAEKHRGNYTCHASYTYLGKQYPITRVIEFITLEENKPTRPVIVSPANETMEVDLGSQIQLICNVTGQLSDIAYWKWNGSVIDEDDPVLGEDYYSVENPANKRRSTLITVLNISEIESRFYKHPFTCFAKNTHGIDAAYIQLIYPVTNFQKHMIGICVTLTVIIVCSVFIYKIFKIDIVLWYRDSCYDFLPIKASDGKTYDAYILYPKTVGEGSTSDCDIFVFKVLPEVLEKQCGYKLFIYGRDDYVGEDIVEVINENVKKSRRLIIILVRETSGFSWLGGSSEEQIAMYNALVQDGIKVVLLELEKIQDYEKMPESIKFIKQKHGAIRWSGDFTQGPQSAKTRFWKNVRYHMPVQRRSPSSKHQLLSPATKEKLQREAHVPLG
# T2: cynomolgus IL-1R1, endogenous on CYNOM-K1 cells (cynomolgus monkey, UniProt A0A7N9CMI5 18-569)
# T2 sequence: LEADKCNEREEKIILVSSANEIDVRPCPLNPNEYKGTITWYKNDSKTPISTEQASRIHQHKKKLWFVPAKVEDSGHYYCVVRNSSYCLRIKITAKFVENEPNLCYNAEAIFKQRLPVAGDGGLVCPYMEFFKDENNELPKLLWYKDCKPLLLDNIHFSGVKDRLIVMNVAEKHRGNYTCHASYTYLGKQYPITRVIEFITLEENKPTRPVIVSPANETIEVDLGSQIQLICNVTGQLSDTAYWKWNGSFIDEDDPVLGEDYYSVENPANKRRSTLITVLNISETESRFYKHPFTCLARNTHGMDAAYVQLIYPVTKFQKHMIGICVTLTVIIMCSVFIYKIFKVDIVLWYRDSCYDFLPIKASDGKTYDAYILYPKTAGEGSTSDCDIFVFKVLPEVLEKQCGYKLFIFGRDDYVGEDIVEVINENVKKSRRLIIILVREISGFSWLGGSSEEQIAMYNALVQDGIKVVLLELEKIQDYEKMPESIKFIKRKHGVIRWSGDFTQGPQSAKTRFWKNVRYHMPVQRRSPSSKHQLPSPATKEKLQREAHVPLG
# B1: MoD2c IL1R1 (Fc fusion, human;mouse, UniProt P14778 18-177, looked up, not shown: a dimerising Fc or GST)
# chain: LEADKCKEREEKIILVSSANEIDVRPCPLNPNEHKGTITWYKDDSKTPVSTEQASRIHQHKEKLWFVPAKVEDSGHYYCVVRNSSYCLRIKISAKFVENEPNLCYNAQAIFKQKLPVAGDGGLVCPYMEFFKNENNELPKLQWYKDCKPLLLDNIHFSGVKDKLIVMNVAEKHRGNYTCHASYTYLGKQYPITRVIEFITLEENKPTRPVIVSPANETMEVDLGSQIQLICNVTGQLSDIAYWKWNGSVIDEDDPVLGEDYYSVENPANKRRSTLITVLNISEIESRFYKHPFTCFAKNTHGIDAAYIQLIYPVTNFQK
# notes: also called chimera without loop d2-e2
# B2: MoD3a2 IL1R1 (Fc fusion, human;mouse, UniProt P14778 18-272, looked up, not shown: a dimerising Fc or GST)
# chain: B1 chain with K163R, V256F, G258A, Y262Q, S263F, N266H, A268S, N269T, R272K
# notes: range 1-272;range 276-292;range 290-336
# B3: MoD2a IL1R1 (Fc fusion, human;mouse, UniProt P14778 18-122, looked up, not shown: a dimerising Fc or GST)
# chain: B1 chain with N106S, A107T, I110T, K112P, K114R, P116H, V117I, K163R
# notes: range 1-122;range 126-137;range 135-336; also called chimera without human beta strand a2
# B4: MoD3b IL1R1 (Fc fusion, human;mouse, UniProt P14778 18-309, looked up, not shown: a dimerising Fc or GST)
# chain: LEADKCKEREEKIILVSSANEIDVRPCPLNPNEHKGTITWYKDDSKTPVSTEQASRIHQHKEKLWFVPAKVEDSGHYYCVVRNSSYCLRIKISAKFVENEPNLCYNAQAIFKQKLPVAGDGGLVCPYMEFFKNENNELPKLQWYKDCKPLLLDNIHFSGVKDRLIVMNVAEKHRGNYTCHASYTYLGKQYPITRVIEFITLEENKPTRPVIVSPANETMEVDLGSQIQLICNVTGQLSDIAYWKWNGSVIDEDDPVLGEDYYSVENPANKRRSTLITVLNISEIESRFYKHPFICVVKNTNIFESAHVQLIYPVTNFQK
# B5: Antibody 6 IgG1 (antibody, V domains shown)
# VH: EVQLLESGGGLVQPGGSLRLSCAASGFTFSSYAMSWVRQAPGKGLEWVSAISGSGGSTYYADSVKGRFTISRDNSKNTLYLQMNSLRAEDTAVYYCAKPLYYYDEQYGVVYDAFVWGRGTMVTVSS
# VL: QSVLTQPPSVSGAPGQRVTISCTGSSSNIGAGYDVHWYQQLPGTAPKLLIYGDTHRPSGVPDRFSGSKSGTSASLVIAGLQAEDEADYYCQSYDTVRLHHVFGGGTKLTVL
# notes: Non-germlined IgG1, lambda light chain
# B6: Antibody 8 IgG1 (antibody, V domains shown)
# VH: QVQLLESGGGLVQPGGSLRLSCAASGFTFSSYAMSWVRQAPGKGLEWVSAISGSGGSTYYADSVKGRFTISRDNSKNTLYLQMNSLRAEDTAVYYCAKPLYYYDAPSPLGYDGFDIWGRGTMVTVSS
# VL: B5 VL with V96H, R97L, L98V, H99A
# notes: as for B5
# B7: Antibody 4 IgG1 (antibody, V domains shown)
# VH: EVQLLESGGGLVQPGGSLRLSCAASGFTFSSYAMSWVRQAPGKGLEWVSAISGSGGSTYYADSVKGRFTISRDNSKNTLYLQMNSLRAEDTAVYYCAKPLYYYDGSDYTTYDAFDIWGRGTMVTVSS
# VL: B5 VL with V96S, R97L, L98S, H99G, H100S, V101L
# B8: Antibody 9GL IgG2 (antibody, V domains shown)
# VH: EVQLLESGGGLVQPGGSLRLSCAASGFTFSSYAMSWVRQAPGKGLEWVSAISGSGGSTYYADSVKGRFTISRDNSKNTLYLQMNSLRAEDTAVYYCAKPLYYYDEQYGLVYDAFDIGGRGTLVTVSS
# VL: B5 VL with V76A, A78T, V96L, R97L, H99A, H100P, V101Q
# notes: Germlined IgG2, lambda light chain; also called 28Q1 GL
# B9: Antibody 7 IgG1 (antibody, V domains shown)
# VH: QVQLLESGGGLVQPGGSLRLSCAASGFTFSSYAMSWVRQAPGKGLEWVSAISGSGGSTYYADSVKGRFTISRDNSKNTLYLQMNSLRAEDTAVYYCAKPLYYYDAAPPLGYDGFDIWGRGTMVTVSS
# VL: B5 VL with V96D, R97A, L98A, H99R, V101Q
# notes: as for B5
# B10: Antibody 5 IgG1 (antibody, V domains shown)
# VH: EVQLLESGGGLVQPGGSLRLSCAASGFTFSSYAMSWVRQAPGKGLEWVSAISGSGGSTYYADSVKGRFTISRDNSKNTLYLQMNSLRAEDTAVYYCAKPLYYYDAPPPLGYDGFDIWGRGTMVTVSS
# VL: B5 VL with V96A, R97G, L98G, H99G, V101H
# notes: as for B5
# B11: Antibody 9 IgG1 (antibody, V domains shown)
# VH: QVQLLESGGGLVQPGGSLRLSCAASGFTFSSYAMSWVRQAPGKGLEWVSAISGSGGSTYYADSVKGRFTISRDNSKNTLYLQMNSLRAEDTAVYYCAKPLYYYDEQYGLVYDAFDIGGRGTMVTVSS
# VL: B5 VL with V96L, R97L, H99A, H100P, V101Q
# notes: as for B5
# B12: MoD3 HuD1-D2 IL1R1 (Fc fusion, human;mouse, UniProt P14778 18-227, looked up, not shown: a dimerising Fc or GST)
# chain: LEADKCKEREEKIILVSSANEIDVRPCPLNPNEHKGTITWYKDDSKTPVSTEQASRIHQHKEKLWFVPAKVEDSGHYYCVVRNSSYCLRIKISAKFVENEPNLCYNAQAIFKQKLPVAGDGGLVCPYMEFFKNENNELPKLQWYKDCKPLLLDNIHFSGVKDRLIVMNVAEKHRGNYTCHASYTYLGKQYPITRVIEFITLEENKPTRPVILSPRNETIEADPGSMIQLICNVTGQFSDLVYWKWNGSEIEWNDPFLAEDYQFVEHPSTKRKYTLITTLNISEVKSQFYRYPFICVVKNTNIFESAHVQLIYPVPDFK
# notes: range 1-227;range 231-338
# B13: MoD1b IL1R1 (Fc fusion, human;mouse, UniProt P14778 18-42, looked up, not shown: a dimerising Fc or GST)
# chain: LEADKCKEREEKIILVSSANEIDVRKCPLTPNKMHGDTITWYKDDSKTPVSTEQASRIHQHKEKLWFVPAKVEDSGHYYCVVRNSSYCLRIKISAKFVENEPNLCYNAQAIFKQKLPVAGDGGLVCPYMEFFKNENNELPKLQWYKDCKPLLLDNIHFSGVKDRLIVMNVAEKHRGNYTCHASYTYLGKQYPITRVIEFITLEENKPTRPVIVSPANETMEVDLGSQIQLICNVTGQLSDIAYWKWNGSVIDEDDPVLGEDYYSVENPANKRRSTLITVLNISEIESRFYKHPFTCFAKNTHGIDAAYIQLIYPVTNFQK
# notes: range 1-42;range 45-56;range 54-336
# B14: Antibody 1 IgG1 (antibody, V domains shown)
# VH: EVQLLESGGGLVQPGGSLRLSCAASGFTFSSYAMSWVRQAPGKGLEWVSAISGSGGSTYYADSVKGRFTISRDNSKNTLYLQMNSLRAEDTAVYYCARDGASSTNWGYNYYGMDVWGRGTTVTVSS
# VL: QAVLTQPSSASGTPGQRVTISCSGSSSNIGSNYVFWYQQFPGTAPQLLVKWNNQRPSGVPDRFSGSKSGTSASLAISGLRSEDEADYYCAAWDDSLSGLVFGGGTKLTVL
# B15: Antibody 2 IgG1 (antibody, V domains shown)
# VH: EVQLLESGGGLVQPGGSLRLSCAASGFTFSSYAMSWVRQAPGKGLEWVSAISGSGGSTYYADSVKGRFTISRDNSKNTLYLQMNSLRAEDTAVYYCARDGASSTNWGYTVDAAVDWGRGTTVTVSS
# VL: B14 VL with S95H, S97E, G98Q, V100H
# notes: as for B5
# B16: Antibody 3 IgG1 (antibody, V domains shown)
# VH: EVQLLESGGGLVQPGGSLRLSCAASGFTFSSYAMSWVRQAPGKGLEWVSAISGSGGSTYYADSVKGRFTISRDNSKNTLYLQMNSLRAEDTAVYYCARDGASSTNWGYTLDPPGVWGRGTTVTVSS
# VL: B14 VL with S95A, L96A, S97R, G98V, V100L
# notes: as for B5
# Columns and labels:
# [1] = molecular target: Antibody 6 (Eu3+ cryptate labelled, Example 5); assay: HTRF competition: unlabelled test protein against biotin labelled human IL-1R1/Fc binding to cryptate labelled antibody
# Method: (§1) Antibody was cryptate labelled with Eu³′ Cryptate labelling kit according to the manufacturer's instructions (CisBio International Cat No. 62EUSPEA) and IL-1R1/Fc (SEQ ID NO: 134, see Material and Methods) was Biotin labelled with EZ Link Sulfo-NHS-Biotin (Perbio Cat No. 21335) according to the manufacturer's instructions. Assay conditions were 0.25 nM Cryptate labelled antibody, 0.3 nM biotin labelled IL-1R1/Fc, 2.5 nM streptavidin XL^{ent!} (CisBio International Cat. No. 611SAXLB) in 1×D-PBS, 0.1% BSA, 0.4M potassium fluoride in a total volume of […] in a 384 well shallow well costar plate (3676). To the assay a dilution series (from maximum of 100 nM to 0.0017 nM) of test proteins was added and the assay incubated for 3 hours at room temperature. FRET signal was detected using a PerkinElmer EnVision plate reader using a 320 nm excitation filter and 620 nm and 665 nm emission filters. Results were calculated from the 665/620 ratio as a percentage of specific binding (signal with no competitor antigen). Results were analysed with Prism (GraphPad Software) using the sigmoidal dose response model.
# Antibody binding of chimeric molecules was tested in an HTRF (Homogeneous Time Resolved Fluorescence) competition assay. Molecules which bound antibody at the same paratope as human IL-1R1 inhibited the binding interaction, leading to a reduction in signal. From inhibition curves IC₅₀ values for human IL-1R1, mouse IL-1R1 and chimeric molecules were calculated (Table 12). […] Chimeras that gave similar IC₅₀ values to native human IL-1R1 still contained the epitope.
# [2] = molecular target: Antibody 6 (Eu3+ cryptate labelled, Example 5); assay: HTRF competition assay, against human IL-1R1 as reference
# Method: as §1
# Antibody binding of chimeric molecules was tested in an HTRF (Homogeneous Time Resolved Fluorescence) competition assay. […] From inhibition curves IC₅₀ values for human IL-1R1, mouse IL-1R1 and chimeric molecules were calculated (Table 12). […]
# [3] = molecular target: T1, human IL-1R1, endogenous on human cells …; assay: cell-based or functional assay
# [4] = molecular target: T3, human histidine tagged (HIS) IL1RFc fusion protein (human); assay: HTRF receptor-ligand assay, IgG inhibiting HIS FLAG IL-1Ra binding to cryptate labelled human HIS IL1RFc
# T3 construct: Biotinylated or cryptate labelled in some assays; also called human HIS IL1RFc; huIL-1R1-Fc
# Method: The ability of lead antibodies to inhibit IL-1Ra to IL-1R1 was assessed in a receptor-ligand binding HTRF® (Homogeneous Time-Resolved Fluorescence) assay format for inhibition of HIS FLAG tagged human IL1Ra (In house, E. Coli expressed; HIS FLAG IL-1RA) binding to human histidine tagged (HIS) IL1RFc fusion protein (in house), as described in the Materials and methods section.
# A titration of inhibitor was used in order to establish the clone potency as measured by IC₅₀ values in the assay. All dilutions were carried out in assay buffer as for ligand binding assay above. 5 μl of a titration of inhibitor was added to a 384 well low volume assay plate (Costar 3676). This was then followed by addition of 0.4 nM cryptate labelled HIS IL1RFc. Assay plates were then sealed and incubated at room temperature in dark for 1 hour.
# [5] = molecular target: T1, human IL-1R1, endogenous on human cells …; assay: cell-based or functional assay; remark: listed apart in the source
# [6] = molecular target: T2, cynomolgus IL-1R1, endogenous on …; assay: cell-based or functional assay
binder,measurement,setting,value
B1,IC50,[1],0.637 nM
same,fold higher IC50 than human IL-1R1,[2],> 3 fold
B2,IC50,[1],0.268 nM
B3,IC50,[1],4.6 nM
same,fold higher IC50 than human IL1R1,[2],26 fold
B4,IC50,[1],0.337 nM
B5,"IC50, inhibition of IL-1 beta induced IL-8 release in HeLa cells (IgG1)",[3],0.0078 nM
same,IC50,[4],0.1 nM
B6,"IC50, inhibition of IL-1 beta induced IL-8 release in HeLa cells (IgG1)",[3],0.0293 nM
same,IC50,[4],0.156 nM
B7,"IC50, inhibition of human IL-1β induced IL-8 release from HeLa cells",[5],22 nM
B8,"IC50, inhibition of IL-1 alpha induced IL-8 release in HeLa cells (GL IgG2)",[3],0.0162 nM
same,"IC50, inhibition of IL-1 beta induced IL-8 release in HeLa cells (GL IgG2)",[3],0.0069 nM
same,"IC50, inhibition of IL-1β induced IL-8 release from CYNOM-K1 cells, experiment 1",[6],1.2 nM
same,"IC50, inhibition of IL-1β induced IL-8 release from CYNOM-K1 cells, experiment 2",[6],1.1 nM
same,IC50,[4],0.208 nM
B9,"IC50, inhibition of IL-1 beta induced IL-8 release in HeLa cells (IgG1)",[3],0.0426 nM
same,IC50,[4],0.168 nM
B10,"IC50, inhibition of IL-1 beta induced IL-8 release in HeLa cells (IgG1)",[3],0.032 nM
same,IC50,[4],0.186 nM
B11,"IC50, inhibition of IL-1 beta induced IL-8 release in HeLa cells (IgG1)",[3],0.0115 nM
same,IC50,[4],0.156 nM
B12,IC50,[1],0.147 nM
B13,IC50,[1],0.201 nM
B14,"IC50, inhibition of human IL-1β induced IL-8 release from HeLa cells",[5],95.9 nM
B15,"IC50, inhibition of IL-1 beta induced IL-8 release in HeLa cells (IgG1)",[3],0.0775 nM
same,IC50,[4],0.256 nM
B16,"IC50, inhibition of IL-1 beta induced IL-8 release in HeLa cells (IgG1)",[3],0.0494 nM
same,IC50,[4],0.469 nM
